Data as given in doi:10.1101/070185 (bioRxiv, 2016).
Where a chain is given by its changes, count along the chain named. Names may count otherwise.

T1: ETS1Δ335 (UniProt P14921 335-441)
T1 sequence: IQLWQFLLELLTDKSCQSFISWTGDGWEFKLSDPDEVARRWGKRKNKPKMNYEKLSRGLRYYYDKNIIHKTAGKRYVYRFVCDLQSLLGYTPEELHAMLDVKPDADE

T2: ETS1Δ335 R394A/Y395A (UniProt P14921 335-441, R394A;Y395A)
T2 sequence: T1 sequence with R60A, Y61A

T3: ETS1Δ335 L337A (UniProt P14921 335-441, L337A)
T3 sequence: T1 sequence with L3A

B1: MMP3 M2 (dsDNA)
DNA 1: ACAGGAAGCACTTTTTGG
DNA 2: CCAAAAAGTGCTTCCTGT
B2: MMP3 M1 (dsDNA)
DNA 1: ACAAAAAGCACTTCCTGG
DNA 2: CCAGGAAGTGCTTTTTGT
B3: MMP3 WT (dsDNA)
DNA 1: ACAGGAAGCACTTCCTGG
DNA 2: CCAGGAAGTGCTTCCTGT
B4: ETS1Δ335 R378C (domain or fragment, UniProt P14921 335-441, looked up)
chain: T1 sequence with R44C
B5: ETS1Δ335 R378C/R394A/Y395A (domain or fragment, UniProt P14921 335-441, looked up)
chain: T1 sequence with R44C, R60A, Y61A
B6: ETS1Δ335 L337A R378C (domain or fragment, UniProt P14921 335-441, looked up)
chain: T1 sequence with L3A, R44C
B7: p53 (dsDNA)
DNA 1: TTAGGAAGGCTTTCCGTA
DNA 2: TACGGAAAGCCTTCCTAA

Columns and labels:
ETS1Δ335 = biological target: T1, ETS1Δ335; assay: EMSA
ETS1Δ335 R394A/Y395A = biological target: T2, ETS1Δ335 R394A/Y395A; assay: EMSA
ETS1Δ335 L337A = biological target: T3, ETS1Δ335 L337A; assay: EMSA
cross-linking = biological target: the molecule itself; assay: cross-linking

Binder | Kd (ETS1Δ335) | Kd (ETS1Δ335 R394A/Y395A) | stoichiometry N (cross-linking) | also measured
B1 | 6.37 ± 0.92 nM | 7.33 ± 0.55 nM |  | 
B2 | 13.5 ± 1.9 nM | 105 ± 5.2 nM |  | 
B3 | 1.2 ± 0.2 nM | 16.1 ± 1.3 nM |  | binding result (ETS1Δ335 L337A): no binding
B4 |  |  | 2 | 
B5 |  |  | 2 | 
B6 |  |  | 2 | 
B7 |  |  |  | binding result (ETS1Δ335): no binding; binding result (ETS1Δ335 R394A/Y395A): no binding
